Test results: the DeepSol protein solubility set

Test: soluble on expression in E. coli; label from the status in PepcDB or PDB records

Row | Sequence | soluble on expression in E. coli
1 | MNPLRSIQHNITTPPISGGQPLDAVGPQAQQSHPKRISPSQLSQSAHQALERLSANAEHQRLASLVRNALQDGTFQFQSSNHTQVTYKASICLPADTDTVRTDHLINNELTVQARLNDQSEYDIVSAHLHGSSKAISFDVPSPPPAHGSASSVLSERTHLGMSSVLSQDAVDSSSLETPLVSSPDHSRPPSQPKPVHIGSVRRDSGSLVSDNPVVQALLSFVQADQAFPPQAASIAGVQLEMRSRRDIEQALEELKGAFTVEKAQLMSGGSSSERVDEDVNADIHIPLLLKAIERGAGAFGPGALIEIADGGQISAKAFLASCAPTITSNDDVLSEFINQKLKGDDDLQVRLGAQELLHVATKKEFQLGGLAGSIGVSSILGSAWELGASELLKNAIFGKNFSPSQYALQLAGIDSVPPFIIEAMDSFCVLVIIKGMKGELWSMKDLLPKALKAGAISSAMSFPNNVLQYAGFKSRVADLAANSITTEAAIFGAASGIPPEVKESEELMRAGLFQSMKDGVMAHPGEGMDTKETIERMTRHALDIAPGESTAVKSMGLAAIVGMIPLIASSKATGLVSEQILRIFRNAVFNPIEAIALNALALGGRVNVPGLFDSDNAKHARVAQTILARASQHMEAGDREISAEELHQMLAPRSEFLRHVGSAIVNGMNASFEAIPALVRKLGYGEAPLAERIPYQDLAVPDTSRQPAP | not soluble
2 | MGSDKIHHHHHHMRVDVMVIGAGAAGMAAALKAKEEGAEVLLVERDERTGGILNQCIHNGFGLHYFRQELTGPEYAERFQEKMEKMGIRALTNAYVKRVEDRRVILVTEQGIEEVEVGALVYATGARERPFGSLMIPGDRPSGIFTAGVAQRLINIENRLPGKRALILGSGDIGLIMARRLTLEGMEVVGVVERLPYAGGLLRNVIQCLEDYNIPLYLSSTVVEVRGRERLEEVVVAKVDEQFRPIPRTERVFKVDTLVLSVGLIPQVELIENLVVKNPTSRGVGVSNIGQTSRDWIFSAGNCTVIFDLVDYVSYEGETAGRYAAKFVKGEIPREKIPVRPGKNVMVVHPIWYTPAEPLTLYLRVKKPMEKGRLVVGRFAREFEDLVPSEMLRVKISDRDLEGLDEIVVSVEEVN | not soluble
3 | MGGDSVAIFTADMSVSGELRNDIELHLRRGIESDALRLVYLPEVDLRTGDIVGTEALVRWQHPTRGLLAPGCFIPVAESINLAGELDRWVLRRACNEFSEWQSAGLGHDALLRINVSAGQLVTGGFVDFVADTIGQHGLDASSVCLEITENVVVQDLHTARATLARLKEVGVHIAIDDFGTGYSAISLLQTLPIDTLKIDKTFVRQLGTNTSDLVIVRGIMTLAEGFQLDVVAEGVETEAAARILLDQRCYRAQGFLFSRPVPGEAMRHMLSARRLPPTCILEHHHHHH | not soluble
4 | MGSDKIHHHHHHMKTRADLFAFFDAHGVDHKTLDHPPVFRVEEGLEIKAAMPGGHTKNLFLKDAKGQLWLISALGETTIDLKKLHHVIGSGRLSFGPQEMMLETLGVTPGSVTAFGLINDTEKRVRFVLDKALADSDPVNFHPLKNDATTAVSQAGLRRFLAALGVEPMIVDFAAMEVVG | soluble
5 | MNVYFLGGGNMAAAVAGGLVKQGGYRIYIANRGAEKRERLEKELGVETSATLPELHSDDVLILAVKPQDMEAACKNIRTNGALVLSVAAGLSVGTLSRYLGGTRRIVRVMPNTPGKIGLGVSGMYAEAEVSETDRRIADRIMKSVGLTVWLDDEEKMHGITGISGSGPAYVFYLLDALQNAAIRQGFDMAEARALSLATFKGAVALAEQTGEDFEKLQKNVTSKGGTTHEAVEAFRRHRVAEAISEGVCACVRRSQEMERQYQ | soluble
6 | GPYGAPAGPLIVPYNLPLPGGVVPRMLITILGTVKPNANRIALDFQRGNDVAFHFNPRFNENNRRVIVCNTKLDNNWGREERQSVFPFESGKPFKIQVLVEPDHFKVAVNDAHLLQYNHRVKKLNEISKLGISGDIDLTSASYTMI | soluble
7 | MSNFISPVYEIKSIPIEKISPNDYNPNSVAPPEMKLLYDSIKSDGYTMPIVCYYDKEEDRYSIVDGFHRYRIMLDYSDIYERESGRLPVSVIDKSLDYRMASTIRHNRARGSHDVDLMSQIVKDLHECGRSDNWIAKHLGMDKDEILRLKQITGLASLFKDHEFNQSWEPEELLNE | soluble
8 | MAHHHHHHMMSPFPPLPVYLSGLLTLHVPTRCLHFLVLTPMKTRVGLHRCCASYLRLLSQDRLQLHNPIEFIGALHFFTSLCSPLGVADFLRMEDPAAQEVVVTPWTVEGDVNYDKLIKNFGCQAIDDKLLERMERLTGKKPHHFLRRGIFFSHRDLNLILDAYEKGQPFYLYTGRGPSSESMHVGHLIPFMFTKWLQDTFHVPLVIQLTDDEKFFFKDLTMEEIDKMTTENLKDIIAFGFDPKLTFIFRDFEYVGQMYRIVARIEKAYTASQVRGCFGFKMEDNCGRWMFPAIQAAPSFSAAFPHIFPLQKGNVFCMIPQAIDQDPYFRLTRDVAPRMGYLKPAVIHSKFFPGLSGSKGKMSSSTGAAVFLTDTPKMIKDKINKHAFSGGGADKKEQLLLGGNTNVDVPVQWLRFFLEDDEELKRLQKDYMLGRIMTGDVKKVLIRQITSIVTAHQESRKKVTEADVELFTAVRVMGPAKEEAESRK | not soluble
9 | MTRRCELLVVGAGPAGMAAATQSAALGVDTLLLDEQATPGGQIYRAITTTALTRPDILGPDYWHGASLLEPLRASGAAYLSGATVWAVSRGAEAGDGGAFEVAYSVGGQADILRARHILLATGALERPFPIPGWTLPGVVTAGAAQILLKTAAIVPGEHAVLAGGGPLLYLLAWQYLNAGVRIERLLETTAPGGLARALPHALDFLRSPYLAKGLKLMRAVRAHVPITRGVRDLRAQGRERLESLSYRAGGRTHDMPARHLMLHQGVVPNLNLSRALGVDHQWNPTQACWQPRVDDWGATSVAGIGIAGDGADIGGAIAAEHRGRLAALQAAVALGRIDDARRDREARAPRRALARAMRGRAFFDVLYRPADAYRRPGDDTIVCRCEEITAGQIRATVRLGCSGPNQMKAFLRCGMGPCQGRLCGLTVSELIAHERGVPLPEVGYYRLRFPTKPVTLGELASLPQTEASRQAVVRLKKTALEHHHHHH | not soluble
10 | SAQFINGTINSWFGNDTHEALERSLNLSKSALNLAADNALGNAVPVQIDLIGAASLPGDMGRVLEHYAGSGFAQLALYNAASGKIEKSINPHKLDQPFPGKARWEKIQRAGSVRDLESIGGVLYAQGWLSAGTHNGRDYALFFRQPVPKGVAEDAVLIEKARAKYAELSYSKKGLQT | not soluble
11 | MKMDRQAQFRAREALIFEVAEQLLLENGEAGMTLDALAAELDLAKGTLYKHFQSKDELYMLLIVRNERMLLEMIQDKQKSFPEHLAFFMLHHLHHPERTVMFHQIEERLSTTGQGIYDLFQELYQVRKQRLRIIINMTEIYLQEIQSTMTVRDYLAAIWSLTHGAAAILNSSFYQRYLGSRDTLRIAYIDQALAIPKHMHEQYV | not soluble
12 | MGSDKIHHHHHHMIHSETFAEIATLKERNLIALKEAREAGRHAVGTYCLFSPTELILAAGAIPVSLCGTSQKPIPAAEKVLPRNLCPLIKSSYGFAVTDTCPYFHFADFLLAETTCDGKKKMYELLGELKPIHVMQLPQIQDEAALDYWLMEIGRLKTRLEREFGVRITDKALTEAIRLMNEERRSLQALQDVCKAIPSPISGLDLLTVLHNRGFSVDRRAAIELVDRFAAELRQMAAAGISPFTESTPRILLTGVPVGVGSEKLIRIIEESGASVVCLESCGAYKKVEQVREGGDPLRAIAERYLKVPCSCMSPNTGRLELVERLTREFRVDGVVDLTWLGCHTYAVESSVLKKHLQQRTGLPFLQIETDYSESDTGQLKVRVEAFLEIVHRSMKRTA | not soluble
13 | VLDSFEILKALKSLDLLKNAPAWWWPNALKFEALLGAVLTQNTKFEAVLKSLENLKNAFILENDDEINLKKIAYIEFSKLAECVRPSGFYNQKAKRLIDLSGNILKDFQSFENFKQEVTREWLLDQKGIGKESADAILCYACAKEVMVVDKYSYLFLKKLGIEIEDYDELQHFFEKGVQENLNSALALYENTISLAQLYARFHGKIVEFSKQKLELKL | soluble
14 | MLRTEHYAFLPCISRALEERDSLGIRRELRARQQRLSMQQSRSKLGRVCVTGANSPLGQELVGALTRTPDPSLRPDAIGVIGARDPIESHSAGAGLHFPGPGVDFLECAATDLEHYNPRTLFSINDDDLGLRRRSIFRENQVVIDLLRAQGETNEPRSKTRLVLVTLLGCGDSEDAIPSQAFDVLRPLLLELSRVEQYVRESGLPYTIVRPGALEHGDADSRAIVSESKVGFGTIHRSTLAHLLLNVAASEKAVNKTLMALDMNRLLVAAPYVRPFEVWESPPFEVFDL | soluble
15 | MWASPSPSVTVEFLEADSRLGGREVSLCKVAGQPDIRCECGWLELQPTRRSVNYEVVSSGGVTQSAALVTADFQSAEERSRLTVTVQLSSLARDMRDGYHEGFGAGLNNLASVAGRTMVLERVIKVPRNIVWKAWMNEKTLPQWWGPEGFSCRTKRIDLRTGGEWVFDMIGPDGTVFPNHHRYVEIRPEERLAYTLLWGENGPKHADAWASFEDQDGATKVVLGMVFSTDAEFQQAKGFGAVELGQQTLGKLERFAKFFLEHHHHHH | soluble
16 | MGSDKIHHHHHHMGHSLNAKYGLKRVINASGRMSILGVSAPTDTVMDAMKHGGQNYVEIADLVDKAGDHIARILDSEAAVVVNSASSGIALSIAAIVTEGNRRKSERLHQEVIAKNEVIMLKGHNVQYGAPVETMIYLGGGKLVEVGYANEGKAEHIEDAIGENTAAILYVKSHHAVQKNMISVEEAWEVAQRNNIPLIVDAAAEEDIQKYVKYADLAIYSGSKAIEGPTSGIVGGKRKYIEWLKVQLHCIGRSMKVGKETTFGLLQALDEYGVKEDKSEQEKELLQVLMPLKELNGVNVTIVQDEAGRAIFRARIHIDENELNKSAKDVVTALREGEIAIYTRDYGVRQGFFDIDPRPLLGDDIHVIEEKLREIVGGN | not soluble
17 | MSLEYKYELTIDKLLQSGVSSNPDQIINYTGKREFTFKDFSKRVNTLAKALISIGVKKGDRVAVIDWDTYVYLEAYFAVPMVDAVLHTVNVRYPQDLIYYTMDHAEDKYVIVRDEFVPILSKNREAFYFIKGWIVYSETGQIPDSLSPKYVYDDLMKESYSDIELPQLSENDLATTFYTSGTTGIPKGVQFTHRQIVLHSISSGLALADDPINLTSRDVIMPLVPMFHVHAWGVPYMSIMSGRRYVLPGRYDFDHIIDLIDKYNVSVIAMVPSILYLIVTNPNVKKIAGRGIKAIVGGGALPEGLANAAEKLGITAISGYGLSETAPILTLATYNERVKAMPESEKKKFRLKTGIPIPLVQLRVVDDKMNDVPKDEKTIGEIVVRAPWLTSVYVKNKEGTEALWRGDWMHTGDLAVMDEYGYIRIVDREKDAVKSGGEFIPSLVLEDAISSCSGVVENAVVGRPDEKWGERPVAFYTGTAKPDEIRKHLIEMVNAGRIAKFWIPDDFINIKEFAKTSTGKIDKKVLREMIKKEGHHHHHH | soluble
18 | MARNVKGYASTLTWTITRNTLNFLWEQGFKMRINREEILDLMKNAPLKELGQRALRVKQRLHPENLTTFIVDRNINYTNICFVDCKFCAFKRTLKEKDAYVLSYEEIDQKIEELLAIGGTQILFQGGVHPQLKIDYYENLVSHIAQKFPTITIHGFSAVEIDYISKISKLSLKEVLERLKNAGLSSIPGAGAEVLSDRVRDVIAPKKLSSDRWIEVHRMAHLCGIKSTATMMFGSVDNEEDVVEHLQRVRDLQDETGGFRAFILWSFQPNNTPLKEEIPSIKKASSNRYLRYLACSRIFLDNIQNIQSSWVTQGSMIGQLALLFGANDLGSVMMEENVVKAAGTSFCMNEAGMIELIEDIGSVAAKRNTAYEILKRYPAKAKV | not soluble
19 | MSQIKNYMEEVVFSLMKDVLSDINVCSCEKCRMDIAAIALNNLPPKYIVTDKGELYSKVDSLKQQFEVDVISALAKAAVIVKRNPRHE | not soluble
